# Like-named read-outs stand apart in the source and are kept apart here.
# B1: 9D33 MAb (antibody, V domains shown)
# VH: DVQIQQPGTELVKPGASVRLSCKASGYTFTTYWMHWVKQRPGQGLEWIGEIDPSDSYTNYNQKFKGKATLTVDKSSSTAYMHLSSLTSEDSAVYYCSRNYGSGYYFDYWGQGTTLTVSS
# VL: GVEMTQSPAIMSASPGEKVTMTCSASSSVSYMHWYQQKSGTSPKRWIYDTSKLASGVPARFSGSGSGTSYSLTISSMETEDAATYYCQQWSSNPWTFGGGTKLEIK
# Tests used:
# Test in all cases: Scatchard, 125I-ligand, solubilised TSHR on tubes
# [1] = target: T1, human thyrotropin receptor (TSHR), wild type, full length (human, UniProt P16473 21-764)
# T1 construct: whole, on cells; Full length cDNA in pcDNA5.1/FRT, stably expressed in Flp-In-CHO cells; Cyclic AMP assays: on the cells; also called TSH receptor; Wild type TSHR
# Experimental: (§1) Firstly, dilution profiles of each TSHR preparation were set up. In these experiments, plastic tubes (Maxisorp Star; NUNC) were coated overnight at 4° C. with 200 µL of a mouse monoclonal antibody to the TSHR C-terminus at 10 µg/mL in coating buffer (0.1 mmol/L Na_2CO$_3$ pH 9.2). After washing and post-coating (10 mg/mL of BSA in water) the tubes were washed with assay buffer (10 mmol/L Tris-HCl pH 7.8, 50 mmol/L NaCl and 1 mg/mL BSA) containing 0.1% Triton X-100. In the next step, 200 µL of solubilized wild type or mutated TSHR preparations were added to the tubes and incubated overnight at 4 C. […] After aspiration of the solutions, the tubes were washed and counted in a gamma counter.
# TSHR Glu107 to Ala = target: T2, TSHR Glu107 to Ala (human, UniProt P16473 21-764)
# T2 construct: whole, on cells; as m1
# Experimental: as §1
# TSHR Phe130 to Ala = target: T3, TSHR Phe130 to Ala (human, UniProt P16473 21-764)
# T3 construct: whole, on cells; as m1
# Experimental: as §1
# TSHR Phe134 to Ala = target: T4, TSHR Phe134 to Ala (human, UniProt P16473 21-764)
# T4 construct: whole, on cells; as m1
# Experimental: as §1
# TSHR Glu157 to Ala = target: T5, TSHR Glu157 to Ala (human, UniProt P16473 21-764)
# T5 construct: whole, on cells; as m1; also called Glu157 mutated to Ala
# Experimental: as §1
# TSHR Asp160 to Ala = target: T6, TSHR Asp160 to Ala (human, UniProt P16473 21-764)
# T6 construct: whole, on cells; as m1
# Experimental: as §1
# TSHR Glu178 to Ala = target: T7, TSHR Glu178 to Ala (human, UniProt P16473 21-764)
# T7 construct: whole, on cells; as m1; also called Glu178 mutated to Ala
# Experimental: as §1
# TSHR Tyr185 to Ala = target: T8, TSHR Tyr185 to Ala (human, UniProt P16473 21-764)
# T8 construct: whole, on cells; as m1
# Experimental: as §1
# TSHR Asp203 to Ala = target: T9, TSHR Asp203 to Ala (human, UniProt P16473 21-764)
# T9 construct: whole, on cells; as m1; also called Asp203 mutated to Ala
# Experimental: as §1
# TSHR Lys209 to Ala = target: T10, TSHR Lys209 to Ala (human, UniProt P16473 21-764)
# T10 construct: whole, on cells; as m1
# Experimental: as §1
# TSHR Gln235 to Ala = target: T11, TSHR Gln235 to Ala (human, UniProt P16473 21-764)
# T11 construct: whole, on cells; as m1
# Experimental: as §1
# TSHR Lys250 to Ala = target: T12, TSHR Lys250 to Ala (human, UniProt P16473 21-764)
# T12 construct: whole, on cells; as m1
# Experimental: as §1
# TSHR Glu251 to Ala = target: T13, TSHR Glu251 to Ala (human, UniProt P16473 21-764)
# T13 construct: whole, on cells; as m1
# Experimental: as §1
# TSHR Arg255 to Ala = target: T14, TSHR Arg255 to Ala (human, UniProt P16473 21-764)
# T14 construct: whole, on cells; as m1; also called Arg255 mutated to Ala
# Experimental: as §1
# TSHR Arg255 to Asp = target: T15, TSHR Arg255 to Asp (human, UniProt P16473 21-764)
# T15 construct: whole, on cells; as m1; also called TSHR with Arg255 mutated to Asp; Arg255 Asp mutation
# Experimental: as §1
# TSHR Thr257 to Ala = target: T16, TSHR Thr257 to Ala (human, UniProt P16473 21-764)
# T16 construct: whole, on cells; as m1
# Experimental: as §1
# TSHR Trp258 to Ala = target: T17, TSHR Trp258 to Ala (human, UniProt P16473 21-764)
# T17 construct: whole, on cells; as m1; also called Trp258 mutated to Ala
# Experimental: as §1
# TSHR Arg274 to Ala = target: T18, TSHR Arg274 to Ala (human, UniProt P16473 21-764)
# T18 construct: whole, on cells; as m1
# Experimental: as §1
# TSHR Asp276 to Ala = target: T19, TSHR Asp276 to Ala (human, UniProt P16473 21-764)
# T19 construct: whole, on cells; as m1; also called Asp276 mutated to Ala
# Experimental: as §1
# TSHR Tyr279 to Ala = target: T20, TSHR Tyr279 to Ala (human, UniProt P16473 21-764)
# T20 construct: whole, on cells; as m1
# Experimental: as §1
# TSHR Ser281 to Ala = target: T21, TSHR Ser281 to Ala (human, UniProt P16473 21-764)
# T21 construct: whole, on cells; as m1; also called Ser281 mutated to Ala
# Experimental: as §1
# [2] = target: T22, TSHR Arg255 to Ala and Trp258 to Ala (human, UniProt P16473 21-764)
# T22 construct: whole, on cells; as m1
# Experimental: as §1
# TSHR Asp43 to Ala = target: T23, TSHR Asp43 to Ala (human, UniProt P16473 21-764)
# T23 construct: whole, on cells; as m1; also called Asp43 mutated to Ala
# Experimental: as §1
# TSHR Glu61 to Ala = target: T24, TSHR Glu61 to Ala (human, UniProt P16473 21-764)
# T24 construct: whole, on cells; as m1; also called Glu61 mutated to Ala
# Experimental: as §1
# [3] = target: T1, human thyrotropin receptor (TSHR), wild …; remark: listed apart in the source
# [4] = target: T25, TSHR Glu157 to Ala and Asp203 to Ala (human, UniProt P16473 21-764)
# T25 construct: whole, on cells; as m1
# [5] = target: T26, TSHR Glu178 to Ala and Asp203 to Ala (human, UniProt P16473 21-764)
# T26 construct: whole, on cells; as m1
# [6] = target: T27, TSHR Tyr185 to Ala and Lys183 to Ala (human, UniProt P16473 21-764)
# T27 construct: whole, on cells; as m1
# [7] = target: T28, TSHR Trp258 to Ala and Tyr185 to Ala (human, UniProt P16473 21-764)
# T28 construct: whole, on cells; as m1
# [8] = target: T29, TSHR Arg255 to Ala and Tyr185 to Ala (human, UniProt P16473 21-764)
# T29 construct: whole, on cells; as m1
# [9] = target: T30, TSHR Arg255 to Ala, Lys183 to Ala and Tyr185 to Ala (human, UniProt P16473 21-764)
# T30 construct: whole, on cells; as m1
# [10] = target: T31, TSHR Arg255 to Ala, Trp258 to Ala and Tyr185 to Ala (human, UniProt P16473 21-764)
# T31 construct: whole, on cells; as m1
binder,measurement,setting,value
B1,Ka,[1],1.8e+10 M⁻¹
same,Ka,TSHR Glu107 to Ala,6e+09 M⁻¹
same,Ka,TSHR Phe130 to Ala,9e+09 M⁻¹
same,Ka,TSHR Phe134 to Ala,5e+09 M⁻¹
same,Ka,TSHR Glu157 to Ala,1.3e+10 M⁻¹
same,Ka,TSHR Asp160 to Ala,1e+10 M⁻¹
same,Ka,TSHR Glu178 to Ala,1.3e+10 M⁻¹
same,Ka,TSHR Tyr185 to Ala,9e+09 M⁻¹
same,Ka,TSHR Asp203 to Ala,1.4e+10 M⁻¹
same,Ka,TSHR Lys209 to Ala,8e+09 M⁻¹
same,Ka,TSHR Gln235 to Ala,1.1e+10 M⁻¹
same,Ka,TSHR Lys250 to Ala,6e+09 M⁻¹
same,Ka,TSHR Glu251 to Ala,8e+09 M⁻¹
same,Ka,TSHR Arg255 to Ala,8e+09 M⁻¹
same,Ka,TSHR Arg255 to Asp,1.3e+10 M⁻¹
same,Ka,TSHR Thr257 to Ala,7e+09 M⁻¹
same,Ka,TSHR Trp258 to Ala,1.2e+10 M⁻¹
same,Ka,TSHR Arg274 to Ala,5e+09 M⁻¹
same,Ka,TSHR Asp276 to Ala,1.3e+10 M⁻¹
same,Ka,TSHR Tyr279 to Ala,6e+09 M⁻¹
same,Ka,TSHR Ser281 to Ala,9e+09 M⁻¹
same,Ka,[2],1.1e+10 M⁻¹
same,Ka,TSHR Asp43 to Ala,1.4e+10 M⁻¹
same,Ka,TSHR Glu61 to Ala,9e+09 M⁻¹
same,Ka,[3],1.8e+10 M⁻¹
same,Ka,[4],6e+09 M⁻¹
same,Ka,[5],8e+09 M⁻¹
same,Ka,[6],6e+09 M⁻¹
same,Ka,[7],9e+09 M⁻¹
same,Ka,[8],9e+09 M⁻¹
same,Ka,[9],3e+09 M⁻¹
same,Ka,[10],8e+09 M⁻¹

# Source: US9046519 (RSR, dated 2015)
